From the supplement of paper PMC10724198 come the findings set out here.

± gives the standard deviation of the averaged measurements.
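Also: PSI is a weighted mean of sequencing reads over stability bins, variants kept only with over 10 reads, mCherry proximal and sfGFP distal, peptide attached via GGGS linker.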

The test system of this series is Saccharomyces cerevisiae. The series is described as follows: protein stability index of tFT-peptide fusion (C-terminal peptide) (PSI (0-1 scale)); higher = more stable (slower turnover). To be noted: genetic background: wild type; temperature: 30 C. How it is done:
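Multiplexed protein stability (MPS) profiling in S. cerevisiae. Random 12-aa peptides (tFT-X12 library) are fused to the C-terminus of a sfGFP-mCherry tandem fluorescent timer, after mCherry and a GGGS linker. Cells are FACS-sorted into 8 mCherry/sfGFP bins and deep-sequenced. The protein stability index (PSI) is the read-weighted bin average, scaled from 0 (unstable) to 1 (stable). Only peptides with >10 reads are reported; cells were grown at 30 °C in SC-His with glucose.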
DVLVHETFLCRL had a protein stability index of 0.774 ± 0.016.
On to DVVPYLGYYFFC, for which the protein stability index is 0.578 ± 0.01.
DVYDLGLPINMS returned a protein stability index of 0.698 ± 0.045.
DWSHLLTSHAII came in with a protein stability index of 0.703 ± 0.041.
On to EAGGAQGPTGEL, for which the protein stability index was 0.634 ± 0.02.
EAQGVEMMGWAV returned a protein stability index of 0.696 ± 0.025.
To EARPQAMPGRHP belongs 0.689 ± 0.024.
To ECNESSACRNHY belongs 0.65 ± 0.032; to EDKETETSVNQK, 0.6758 ± 0.0059; to EDKVHQSSACHQ, 0.707 ± 0.03.
The sequence EDNRTSEMFVFY returned a protein stability index of 0.753 ± 0.14.
To EDSRATNERGRT belongs 0.704 ± 0.049; to EEFTSRAFRISW, 0.744 ± 0.13; to EERAGTRGGRGR, 0.743 ± 0.13.
Regarding EFERWCGLGRFG, the protein stability index was found to be 0.744 ± 0.096.
Take EFFVLVHLVDPK: the protein stability index was 0.638 ± 0.041.
For EFVFLLSNTFNS the value was 0.749 ± 0.03.
For EGAGGVVVEGLG the value was 0.68 ± 0.028; for EGAVGMSGSLGV, 0.668 ± 0.063; for EGCGLQRGMGVL, 0.681 ± 0.0096.
Turning to EGDACCGVDGKR, the protein stability index was 0.663 ± 0.13.
Sequence EGGETDRSLMVV returned a protein stability index of 0.66 ± 0.014.
To EGGGWGVGSEVG belongs 0.694 ± 0.035.
Take EGGMLNAVRPRS: the protein stability index was 0.663 ± 0.048.
Sequence EGGRFTALSSTS displayed a protein stability index of 0.689 ± 0.039.
With EGGRGYGRGRYG, the protein stability index was determined as 0.685 ± 0.051.
Turning to EGGVERIHKPSS, the protein stability index is 0.654 ± 0.061.
For EGKRGKTGVRRI the value was 0.743 ± 0.055; for EGLRLWGRCCWG, 0.74 ± 0.048.
With EGPLVRGSGVDV, the protein stability index was 0.637 ± 0.043.
To EGQVGVGWGWVR belongs 0.786 ± 0.12; to EGRRCQGGVWRE, 0.6818 ± 0.0061; to EGTIDSGRHSLK, 0.752 ± 0.15.
As for EGTKEKGEKRRR, the protein stability index came out at 0.666 ± 0.065.
In turn, EGTTRDGERCRT registered a protein stability index of 0.696 ± 0.0056.
For EGVSGVSLFRVL the value was 0.661 ± 0.051; for EHCGRGMGSGAA, 0.673 ± 0.012; for EHFGFYFIFNLY, 0.58 ± 0.034.
For EIEYVEPSIPET the value was 0.702 ± 0.046.
In the case of EIGWEGLAGRGG, the protein stability index stood at 0.754 ± 0.029.
For EIKKKNPSTTRR, the protein stability index was found to be 0.663 ± 0.01.
As to EISKVRGAVDRK, the protein stability index is 0.689 ± 0.033.
Regarding EITLFELWPPGS, the protein stability index came to 0.78 ± 0.03.
Sequence EKCCVNSASSFG returned a protein stability index of 0.646 ± 0.0098.
Turning to EKKKNTQGIKKK, the protein stability index came out at 0.685 ± 0.011.
For EKKKRRASREDS, the protein stability index came out at 0.6744 ± 0.0039.
To EKKKSCIMILRK belongs 0.701 ± 0.039.
To EKKKSKGRRKLM belongs 0.705 ± 0.081.
With EKKRKKIYGNLK, the protein stability index was 0.683 ± 0.13.
To EKRDKREVRPGK belongs 0.6626 ± 0.0055; to EKRKEKKKRGKE, 0.797 ± 0.16.
For EKRQNLKPMRTV the value was 0.686 ± 0.026.
For EKSKNQKPHAAR the value was 0.633 ± 0.0088; for EKTKEEKKLRTK, 0.647 ± 0.046; for EKTKEKKAKKYG, 0.694 ± 0.027.
Consider EKYASINSSKPP, for which the protein stability index turned out to be 0.671 ± 0.068.
The sequence EKYSSHPMDTRQ yielded a protein stability index of 0.653 ± 0.013.
For ELCFFISLVPDF the value was 0.642 ± 0.007; for ELEIKGRRQIKT, 0.666 ± 0.055; for ELLKQRTRKRQK, 0.693 ± 0.021.
In the case of ELNENKKKKEHL, the protein stability index worked out at 0.714 ± 0.12.
ELRADRTYTGIV yielded a protein stability index of 0.752 ± 0.054.
For the sequence ELTKNRQTVIIS, the protein stability index was found to be 0.635 ± 0.035.
ELTPCGNNDHAI registered a protein stability index of 0.644 ± 0.0087.
